Data on 1 molecule can be found in US7365239 (Stanford University, dated 2008).

In the assay the target is T1, full-length mouse RabGEF1 expressed as GAL-4 activation domain fusion protein (mouse, UniProt Q9JM13 1-491).
T1 construct: mature; Yeast two-hybrid prey in pACT2; also called Rabex-5
Nature of the assay: yeast two-hybrid, beta-galactosidase assays. From the text: FIG. 2A-2C. Homology of RabGEF1 with members of a Rab5 binding protein family and direct interaction of RabGEF1 with Ras. (a) Alignment of amino acid sequences of mouse RabGEF1 (SEC ID NO:5) with the Vps9p domains of Vps9p (SEC ID NO:6), Rin1, (SEC ID NO:7), and JC265(SEC ID NO:8). The Vps9p domains of Vps9p, RIN1, and JC265 and the proposed GBH motifs I(SEC ID NO:9), II(SEC ID NO:10), and III(SEC ID NO:11) illustrated here represent those previously described. Identical amino acids or conservative substitutions present in three or four proteins are shaded. […] Different segments of the mouse RabGEF1 protein (shaded areas are Vps9p domains; black areas are putative GBH motifs) were expressed as GAL-4 activation domain fusion proteins, whereas the mouse H-Ras and yeast Ras2p proteins were expressed as DNA-binding fusion proteins. Positive interactions were assessed with both a qualitative colony-lift β-galactosidase filter assay using X-gal as the substrate (Colony color) and a quantitative liquid culture β-galactosidase assay using chlorophenol red-β-D-galactopyranoside as the substrate (Relative β-Gal units). […] The pulled-down RabGEF1 was detected using an anti-RabGEF1 antibody. […]
Yeast two-hybrid assay. […] The entire open reading frame and different segments of the open reading frame of the mouse RabGEF1 cDNA were separately subcloned, in frame, into the pACT2 vector.

T1 sequence (Q9JM13 whole entry, the tested form may be a part): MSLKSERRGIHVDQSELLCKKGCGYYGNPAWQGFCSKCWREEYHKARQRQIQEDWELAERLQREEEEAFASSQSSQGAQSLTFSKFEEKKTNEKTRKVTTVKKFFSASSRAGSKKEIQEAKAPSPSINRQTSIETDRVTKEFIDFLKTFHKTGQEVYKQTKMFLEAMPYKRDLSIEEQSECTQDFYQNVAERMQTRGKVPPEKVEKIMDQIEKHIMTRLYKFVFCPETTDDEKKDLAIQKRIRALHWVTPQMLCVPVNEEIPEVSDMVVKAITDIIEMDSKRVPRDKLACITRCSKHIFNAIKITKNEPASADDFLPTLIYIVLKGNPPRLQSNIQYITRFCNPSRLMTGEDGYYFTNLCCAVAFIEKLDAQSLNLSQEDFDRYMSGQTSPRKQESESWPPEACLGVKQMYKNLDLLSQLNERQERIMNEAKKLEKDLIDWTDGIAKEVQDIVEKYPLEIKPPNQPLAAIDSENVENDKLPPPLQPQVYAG

B1: yeast Ras2p expressed as DNA-binding fusion protein (other, UniProt P04386 1-147, looked up)
chain: MKLLSSIEQACDICRLKKLKCSKEKPKCAKCLKNNWECRYSPKTKRSPLTRAHLTEVESRLERLEQLFLLIFPREDLDMILKMDSLQDIKALLTGLFVQDNVNKDAVTDRLASVETDMPLTLRQHRISATSSSEESSNKGQRQLTVSMPLNKSNIREYKLVVVGGGGVGKSALTIQLTQSHFVDEYDPTIEDSYRKQVVIDDEVSILDILDTAGQEEYSAMREQYMRNGEGFLLVYSITSKSSLDELMTYYQQILRVKDTDYVPIVVVGNKSDLENEKQVSYQDGLNMAKQMNAPFLETSAKQAINVEEAFYTLARLVRDEGGKYNKTLTENDNSKQTSQDTKGSGANSVPRNSGGHRKMSNAANGKNVNSSTTVVNARNASIESKTGLAGNQATNGKTQTDRTNIDNSTGQAGQANAQSANTVNNRVNNNSKAGQVSNAKQARKQQAAPGGNTSEASKSGSGGSCIIS
As for B1, the binding result was “no binding”.
